Here are results for three molecules from patent US20190330338A1 (UNIVERSITY OF UTAH RESEARCH FOUNDATION, published 2019).

Experiment [1] addresses T1, recombinant CD229 (human, UniProt Q9HBG7 48-454).
T1 chain: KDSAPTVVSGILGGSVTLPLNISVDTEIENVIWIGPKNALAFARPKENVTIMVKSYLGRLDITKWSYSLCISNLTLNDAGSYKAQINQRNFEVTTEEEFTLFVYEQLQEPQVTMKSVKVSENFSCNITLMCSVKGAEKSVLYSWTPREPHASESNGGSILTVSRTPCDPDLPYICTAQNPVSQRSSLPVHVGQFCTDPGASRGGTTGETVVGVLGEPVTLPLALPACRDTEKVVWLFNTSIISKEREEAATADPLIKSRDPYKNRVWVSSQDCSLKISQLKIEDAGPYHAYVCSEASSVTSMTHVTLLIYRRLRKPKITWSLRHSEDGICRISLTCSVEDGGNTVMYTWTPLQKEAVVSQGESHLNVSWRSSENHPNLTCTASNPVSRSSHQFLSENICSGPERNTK
Briefly: SPR.

In experiment [2] the target is T1, recombinant CD229. Briefly: SPR.
The target of experiment [3] is T2, recombinant CD229 (human, UniProt Q9HBG7 48-454, limits assumed).
T2 construct: Labeled with allophycocyanin in the CAR flow cytometry assay; also called APC-labeled recombinant CD229; immobilized recombinant CD229
T2 sequence (looked up): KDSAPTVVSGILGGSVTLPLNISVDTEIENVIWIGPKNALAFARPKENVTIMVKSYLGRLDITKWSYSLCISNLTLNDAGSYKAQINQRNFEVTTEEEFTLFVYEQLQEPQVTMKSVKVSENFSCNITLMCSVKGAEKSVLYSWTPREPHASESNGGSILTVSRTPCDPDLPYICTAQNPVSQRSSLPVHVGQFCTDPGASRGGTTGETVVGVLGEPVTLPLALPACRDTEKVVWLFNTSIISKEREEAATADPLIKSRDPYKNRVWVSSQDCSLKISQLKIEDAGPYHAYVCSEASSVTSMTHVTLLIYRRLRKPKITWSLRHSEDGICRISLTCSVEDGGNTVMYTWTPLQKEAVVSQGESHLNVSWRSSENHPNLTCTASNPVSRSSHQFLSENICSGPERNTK
Briefly: competition SPR on immobilized CD229. An excerpt: FIGS. 5A, 5B, 5C, 5D, and 5E show the binding, cross-reactivity, and selectivity of anti CD229 CAR T cells. (A) Cross-reactivity screening of 2 anti-CD229 antibody clones expressed as scFv-Fc constructs in mammalian cells by TRF assay using recombinant SLAM family members. […] (B) Cytotoxic activity of primary human T cells expressing CAR constructs based on two antibodies or GFP alone against CD229 positive myeloma cell line U266 and healthy autologous T cells as determined by flow cytometry. Anti-CD229 CARs specifically kill myeloma cells but not healthy T cells co-expressing CD229. […] (E) Competition SPR using immobilized CD229 and sequential injections of the primary antibodies followed by individual injection of antibodies to determine their ability to compete for the epitope recognized by the primary antibody. 1D5 and 2D3 occupy the same epitope space while 2A2 binds to a distinct epitope. Due to the lack of self-competition, 2A2 most likely binds to an epitope occurring twice in recombinant CD229, a tandem Ig domain-containing protein.

Experiment [4] has as its target T2, recombinant CD229. Put plainly: flow cytometry of 293T cells expressing the CAR, stained with APC-labeled recombinant CD229. On the procedure: In the final CAR construct, the scFv can be joined directly to a 45 amino acid hinge domain, which can alter binding properties of the antibodies. […] 20 of the 23 unique scFv binders still recognized CD229 with the new C-terminal fusion partner. All 23 unique binders were cloned into the CAR vector (FIG. 7D). The second-generation CAR construct uses a CD8α hinge and transmembrane domain with a CD3ζ signaling and a 4-1BB costimulatory domain. In addition, a hemagglutinin (HA) tag was added between the scFv and hinge domains to allow the simultaneous assessment of antigen binding and surface expression (FIG. 7D).
For orientation: A flow cytometer gives signals particle by particle.

Read-outs that look alike come from different tables or passages of the source.

B1: anti-CD229 antibody clone 2A2 expressed as scFv-Fc (Fc fusion)
chain: QMQLVQSGAEVKKPGSSVKVSCKASGGTFSSYAISWVRQAPGQGLEWMGGIIPIFGTANYAQKFQGRVTITADKSTSTAYMELSSLRSDDTAVYYCARDELWATNYYYMDVWGKGTLVTVSSLEGGGGSGGGGSGGGASQSALTQPRSVSGSPGQSVTISCTGTSSDVGSYNYVSWYQQSPGKAPKLMIYDVSNRPSGVSNRFSGSKSGNTASLTISGLQSEDEADYYCTSYGSYDIPVIFGGGTKLTVLG
notes: scFv fused C-terminally to an immunoglobulin Fc domain, expressed in mammalian cells; not shown: immunoglobulin Fc domain
In the case of B1, the Kd with recombinant CD229 [1] and with recombinant CD229 [2] was 18.4 nM each time. Also, the binding result with recombinant CD229 [3] is on record as “binds”.

B2: anti-CD229 CAR construct, Clone 2A2 (other)
chain: QMQLVQSGAEVKKPGSSVKVSCKASGGTFSSYAISWVRQAPGQGLEWMGGIIPIFGTANYAQKFQGRVTITADKSTSTAYMELSSLRSDDTAVYYCARDELWATNYYYMDVWGKGTLVTVSSLEGGGGSGGGGSGGGASQSALTQPRSVSGSPGQSVTISCTGTSSDVGSYNYVSWYQQSPGKAPKLMIYDVSNRPSGVSNRFSGSKSGNTASLTISGLQSEDEADYYCTSYGSYDIPVIFGGGTKLTVLG
notes: CAR expressed on cells; also called anti-CD229 CAR clone 2A2; not shown: HA tag, CD8alpha hinge and transmembrane domain, 4-1BB co-stimulatory and CD3zeta signaling domains
As to B2, the binding result in the experiment with recombinant CD229 [4] was “binds”.

B3: anti-CD229 CAR construct, Clone 1A9 (other)
chain: QITLKESGPTLVKPTQTLTLTCTFSGFSLSTSGVGVGWIRQPPGKALEWLALIYWNDDKRYSPSLKSRLTIAKDTSKNQVVLTMTNMDPVDTATYYCARMGWNDPHMVDYWGQGTLVTVSSLEGGGGSGGGGSGGGASDIQMTQSPSSLSASVGDRVTITCRASQSIGSSLHWYQQKPGKAPKFLIYDASSLESGVPSRFSGSGSGTEFTLTISSLQPDDFATYYCQQYNSYPLTFGGGTKLEIKR
notes: CAR expressed on cells; not shown: HA tag, CD8alpha hinge and transmembrane domain, 4-1BB co-stimulatory and CD3zeta signaling domains
Consider B3, for which the binding result with recombinant CD229 [4] is on record as “binds”.
